Reference: article PMC10030467 (Nature Communications, 2023)
Residue numbers refer to the chain shown, from its start. Numbers in names are those of the source. Where “and” joins values, the source holds several entries; their conditions need not be identical. Identical values can stand only once.

B1: TRIM72 W277A (natural protein, human, UniProt Q6ZMU5-1 2-477, looked up)
chain: SAAPGLLHQELSCPLCLQLFDAPVTAECGHSFCRACLGRVAGEPAADGTVLCPCCQAPTRPQALSTNLQLARLVEGLAQVPQGHCEEHLDPLSIYCEQDRALVCGVCASLGSHRGHRLLPAAEAHARLKTQLPQQKLQLQEACMRKEKSVAVLEHQLVEVEETVRQFRGAVGEQLGKMRVFLAALEGSLDREAERVRGEAGVALRRELGSLNSYLEQLRQMEKVLEEVADKPQTEFLMKYCLVTSRLQKILAESPPPARLDIQLPIISDDFKFQVARKMFRALMPALEELTFDPSSAHPSLVVSSSGRRVECSEQKAPPAGEDPRQFDKAVAVVAHQQLSEGEHYWEVDVGDKPRWALGVIAAEAPRRGRLHAVPSQGLWLLGLREGKILEAHVEAKEPRALRSPERRPTRIGLYLSFGDGVLSFYDASDADALVPLFAFHERLPRPVYPFFDVCWHDKGKNAQPLLLVGPEGAEA
notes: TRIM72, human, residues 2-477, point mutant; primers are in Supplementary Data 3; source: E. coli Rosetta (DE3), purified; not shown: His-Sumo, N-terminal, cleaved
B2: TRIM72 R169A (natural protein, human, UniProt Q6ZMU5-1 2-477, looked up)
chain: B1 chain with R168A, A276W
notes: TRIM72, human, residues 2-477, point mutant; source: E. coli Rosetta (DE3), purified; not shown: His-Sumo, N-terminal, cleaved
B3: TRIM72 R220E (natural protein, human, UniProt Q6ZMU5-1 2-477, looked up)
chain: B1 chain with R219E, A276W
notes: as for B2
B4: TRIM72 W277E (natural protein, human, UniProt Q6ZMU5-1 2-477, looked up)
chain: B1 chain with A276E
notes: as for B2
B5: TRIM72 M179E (natural protein, human, UniProt Q6ZMU5-1 2-477, looked up)
chain: B1 chain with M178E, A276W
notes: as for B2
B6: TRIM72 R180A (natural protein, human, UniProt Q6ZMU5-1 2-477, looked up)
chain: B1 chain with R179A, A276W
notes: as for B2
B7: TRIM72 R198A (natural protein, human, UniProt Q6ZMU5-1 2-477, looked up)
chain: B1 chain with R197A, A276W
notes: as for B2
B8: TRIM72 R169E (natural protein, human, UniProt Q6ZMU5-1 2-477, looked up)
chain: B1 chain with R168E, A276W
notes: as for B2
B9: TRIM72 F272A (natural protein, human, UniProt Q6ZMU5-1 2-477, looked up)
chain: B1 chain with F271A, A276W
notes: as for B2
B10: TRIM72 R180E (natural protein, human, UniProt Q6ZMU5-1 2-477, looked up)
chain: B1 chain with R179E, A276W
notes: as for B2
B11: TRIM72 R198E (natural protein, human, UniProt Q6ZMU5-1 2-477, looked up)
chain: B1 chain with R197E, A276W
notes: as for B2
B12: TRIM72 M179A (natural protein, human, UniProt Q6ZMU5-1 2-477, looked up)
chain: B1 chain with M178A, A276W
notes: as for B2
B13: TRIM72 R220A (natural protein, human, UniProt Q6ZMU5-1 2-477, looked up)
chain: B1 chain with R219A, A276W
notes: as for B2
B14: TRIM72^ΔSPRY (2-287) (domain or fragment, human, UniProt Q6ZMU5-1 2-287, looked up)
chain: SAAPGLLHQELSCPLCLQLFDAPVTAECGHSFCRACLGRVAGEPAADGTVLCPCCQAPTRPQALSTNLQLARLVEGLAQVPQGHCEEHLDPLSIYCEQDRALVCGVCASLGSHRGHRLLPAAEAHARLKTQLPQQKLQLQEACMRKEKSVAVLEHQLVEVEETVRQFRGAVGEQLGKMRVFLAALEGSLDREAERVRGEAGVALRRELGSLNSYLEQLRQMEKVLEEVADKPQTEFLMKYCLVTSRLQKILAESPPPARLDIQLPIISDDFKFQVWRKMFRALMPA
notes: TRIM72, human, residues 2-287 (RING, B-box, coiled-coil); source: E. coli Rosetta (DE3), purified; not shown: His-Sumo, N-terminal, cleaved
B15: TRIM72^ΔRING-B-box (122-477) (domain or fragment, human, UniProt Q6ZMU5-1 122-477, looked up)
chain: AAEAHARLKTQLPQQKLQLQEACMRKEKSVAVLEHQLVEVEETVRQFRGAVGEQLGKMRVFLAALEGSLDREAERVRGEAGVALRRELGSLNSYLEQLRQMEKVLEEVADKPQTEFLMKYCLVTSRLQKILAESPPPARLDIQLPIISDDFKFQVWRKMFRALMPALEELTFDPSSAHPSLVVSSSGRRVECSEQKAPPAGEDPRQFDKAVAVVAHQQLSEGEHYWEVDVGDKPRWALGVIAAEAPRRGRLHAVPSQGLWLLGLREGKILEAHVEAKEPRALRSPERRPTRIGLYLSFGDGVLSFYDASDADALVPLFAFHERLPRPVYPFFDVCWHDKGKNAQPLLLVGPEGAEA
notes: TRIM72, human, residues 122-477 (coiled-coil and SPRY); also called CC-SPRY; source: E. coli Rosetta (DE3), purified; not shown: His-Sumo, N-terminal, cleaved
B16: TRIM72^ΔRING (84-477) (domain or fragment, human, UniProt Q6ZMU5-1 84-477, looked up)
chain: GHCEEHLDPLSIYCEQDRALVCGVCASLGSHRGHRLLPAAEAHARLKTQLPQQKLQLQEACMRKEKSVAVLEHQLVEVEETVRQFRGAVGEQLGKMRVFLAALEGSLDREAERVRGEAGVALRRELGSLNSYLEQLRQMEKVLEEVADKPQTEFLMKYCLVTSRLQKILAESPPPARLDIQLPIISDDFKFQVWRKMFRALMPALEELTFDPSSAHPSLVVSSSGRRVECSEQKAPPAGEDPRQFDKAVAVVAHQQLSEGEHYWEVDVGDKPRWALGVIAAEAPRRGRLHAVPSQGLWLLGLREGKILEAHVEAKEPRALRSPERRPTRIGLYLSFGDGVLSFYDASDADALVPLFAFHERLPRPVYPFFDVCWHDKGKNAQPLLLVGPEGAEA
notes: TRIM72, human, residues 84-477 (B-box, coiled-coil, SPRY); also called RING deletion; source: E. coli Rosetta (DE3), purified; not shown: His-Sumo, N-terminal, cleaved
B17: full-length human TRIM72 protein (2-477) (natural protein, UniProt Q6ZMU5-1 2-477, looked up)
chain: B1 chain with A276W
notes: TRIM72 (MG53), human, residues 2-477; open reading frame of GenBank NM_001008274.4; A dimer in solution at low concentration; the RING domain is not seen in the crystal structure although the full-length protein was crystallised; also called MG53; Tripartite Motif Protein 72; source: E. coli Rosetta (DE3), purified (nickel column, Source Q, Superdex 200 increase); not shown: His-Sumo, N-terminal, …
B18: TRIM72 I95A (natural protein, human, UniProt Q6ZMU5-1 2-477, looked up)
chain: B1 chain with I94A, A276W
notes: TRIM72, human, residues 2-477, point mutant in the B-box; also called I95A mutant; source: E. coli Rosetta (DE3), purified; not shown: His-Sumo, N-terminal, cleaved
B19: TRIM72 C144S (natural protein, human, UniProt Q6ZMU5-1 2-477, looked up)
chain: B1 chain with C143S, A276W
notes: as for B2
B20: TRIM72 C242S (natural protein, human, UniProt Q6ZMU5-1 2-477, looked up)
chain: B1 chain with C241S, A276W
notes: as for B2

Target: the molecule itself
Experiment: SEC-MALS; point mutants, 100 μL at 1 mg/mL; Superdex 200 increase, 20 mM Tris-HCl pH 8.0, 200 mM NaCl, 0.3 mM TCEP
Conditions: not given

Molecule	stoichiometry N
B1	2
B2	2
B3	2
B4	2
B5	2
B6	2
B7	2
B8	2
B9	2
B10	2
B11	2
B12	2
B13	2

Target: the molecule itself
Experiment: AUC + SEC-MALS; deletion constructs of TRIM72 in solution; 20 mM Tris-HCl pH 8.0, 200 mM NaCl, 0.3 mM TCEP
Conditions: not given

Molecule	stoichiometry N
B14	2
B15	2
B16	2

Target: the molecule itself
Experiment: AUC; sedimentation velocity, increasing protein concentration (1, 2, 10, 20, 50 μM); 20 mM Tris-HCl pH 8.0, 200 mM NaCl, 0.3 mM TCEP, 20 °C; SEDPHAT self-association; dimers to tetramer (and hexamer)
Conditions: not given

Molecule	Kd [µM]	stoichiometry N
B17	~780	4 and 6
B18	~2200	

Target: the molecule itself
Experiment: cross-linking; disulfide bonds by oxidation: about 20 μM protein with 0-0.3% H2O2, 4 °C, 30 min, 20 mM Tris-HCl pH 8.0, 200 mM NaCl, 0.3 mM TCEP; non-reducing PAGE
Conditions: not given

Molecule	binding result
B19	binds
B20	binds

Target: the molecule itself
Experiment: AUC; sedimentation velocity, lower protein concentrations of the series 1-50 μM; 20 mM Tris-HCl pH 8.0, 200 mM NaCl, 0.3 mM TCEP, 20 °C; monomers to dimer
Conditions: not given

Molecule	stoichiometry N
B17	2

target: KAP1/TRIM28 (Homo sapiens) (UniProt Q13263); experiment: not given; conditions: cited from earlier work

Molecule	Kd [µM]
KAP1/TRIM28 (from UniProt Q13263)	10
